# Assay results from PMC3520155.
# Target: HA-tagged full-length pebble (Pbl) (Drosophila)
# Experiment: co-IP
row,percent reduction in binding against wild-type ICD [%],Substance
1,33,Sema-1a ICD[36G/52A] (domain or fragment)
2,44,Sema-1a ICD[Δ31–60] (domain or fragment)
